Target: MHC class II (HLA-DR1) on human LG-2 cells (human (endogenous in LG-2))
Test: radioligand binding

SMEZ-2, recombinant (natural protein)
KD, high affinity site: 25 nM
KD, low affinity site: 1000 nM
